Assay results as given in patent US20220119506A1 (NOVOBIND LIVESTOCK THERAPEUTICS, published 2022).
Residue numbers refer to the chain shown, from its start.

Legend:
PirA = target: T1, PirA (Vibrio parahaemolyticus); assay: phage ELISA, antigen-coated wells
T1 construct: also called JHE-like toxin PirA-like; vp19
T1 chain: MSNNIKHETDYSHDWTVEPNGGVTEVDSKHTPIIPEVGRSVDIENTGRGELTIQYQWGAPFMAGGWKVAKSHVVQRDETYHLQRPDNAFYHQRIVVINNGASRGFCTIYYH

VP28 = target: T2, VP28 (White spot syndrome virus); assay: phage ELISA, antigen-coated wells
T2 construct: Recombinant antigen; also called Coat protein VP28
T2 chain: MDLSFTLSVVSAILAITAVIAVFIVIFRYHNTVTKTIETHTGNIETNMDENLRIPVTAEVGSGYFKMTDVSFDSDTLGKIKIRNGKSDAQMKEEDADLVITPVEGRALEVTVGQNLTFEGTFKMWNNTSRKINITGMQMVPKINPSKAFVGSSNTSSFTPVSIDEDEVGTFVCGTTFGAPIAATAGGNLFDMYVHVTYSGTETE

B1: NBX0602 (VHH)
VHH: QVQLQESGGGLVQAGDSLRLSCAASGRTFSRYAMGWFRQAPGKEREFVAAVDWSGGSTAYADSVKGRFTISRDNAKNTVYLQMNSLKPDDTAVYYCAARARDVYGRAWYVEDSSTYDYWGQGTQVTVSS
notes: on phage in the phage ELISA
binding above PBS-coated wells (PirA): ≥ 50%

B2: NBX0824 (VHH)
VHH: QVQLQESGGGLVQAGGSLRLTCAASGRTLSSYLSSYAMGWFRQAPGKERESVATITWNGDRTLYADAVKGRFTISRDNAKNTVYLQMNSVIPEDTAVYYCAADTVGRWRSTLSVRDEYDYWGQGTQVTVAS
notes: on phage in the phage ELISA
binding above PBS-coated wells (PirA): ≥ 50%

B3: NBX0730 (VHH)
VHH: QVQLQESGGGLVQTGDSLRLACAASGRTFSSYPMAWYRQAPGQEREFVAGINRNGNIPVYADSVKGRFTISRDNAKNTVYLQMNNLKPEDTAVYYCAARTIYDSHYTSWGQGTQVTVSS
notes: on phage in the phage ELISA
binding above PBS-coated wells (VP28): ≥ 50%

B4: NBX0815 (VHH)
VHH: QVQLQESGGGLVQAGGSLRLSCAASGRTFSSYAMGWFRQSPGKDREFVAAVSWSGGSTYYADSLKGRFTISRDNAKNTVYLQMNSLKPEDTADYYCAAQRVMDYYRPRTESAYAYWGQGTRVTVSS
notes: on phage in the phage ELISA
binding above PBS-coated wells (PirA): ≥ 50%

B5: NBX0825 (VHH)
VHH: QVQLQESGGGVVETGGSLSVSCVASGRTFSAYTMAWFRQSPGKEREFVASMSRGSAAYYTDSVRGRFAISRVGDKNTVHLQMRDLKPEDTAVYYCAGGSPGSSQIATPEAYTYWGQGTQVTVSA
notes: on phage in the phage ELISA
binding above PBS-coated wells (PirA): ≥ 50%

B6: NBX0817 (VHH)
VHH: QVQLQESGGGLVQAGGSLRLSCGASGGTNSNYAMGWFRQPPGKKREFVAALSWSGYNTHYADSVKGRFTISRPSARTVDLQMNNVKPEDTAVYYCAARLSGRTAGSRTYYAEGQYDYRGQGTQVTVSS
notes: on phage in the phage ELISA
binding above PBS-coated wells (PirA): ≥ 50%

B7: NBX0820 (VHH)
VHH: QVQLQESGGGLVQTGGSLRLSCAASGRTFSNYVIGWFRQAPGKEREFVAAVGRGINSAYHATHYSESVKDRFTTSRDNAKNTGFLQMNSLKTEDTAVYYCAVTSRWGQFDRTDFNSWGQGTQVTVSS
notes: on phage in the phage ELISA
binding above PBS-coated wells (PirA): ≥ 50%

B8: NBX0823 (VHH)
VHH: QVQLQQSGGGLVQTGGSLRLSCAASGSIFSIDFMGWYRQAPGNPREFVARIRGGNTYYADSVKGRFNISRDNAENTVYMQMNSLKSEDTAVYYCNAQITMRGGTWSTSEYWGQGTQVNVSS
notes: on phage in the phage ELISA
binding above PBS-coated wells (PirA): ≥ 50%

B9: NBX0723 (VHH)
VHH: QVQLQESGGGLVQAGGSLRLSCAASGRTFSSYPMGWFRQAPGSEREQIAGISRSGVPGKYADSVSGRFTISRDNAKNTLYLQMNSLKPEDTAVYYCAARSIYSNNYSYWGQGTQVTVSS
notes: on phage in the phage ELISA
binding above PBS-coated wells (VP28): ≥ 50%

B10: NBX0725 (VHH)
VHH: B9 VHH with E6Q, A23T, S43K, V56N, S100Q
notes: on phage in the phage ELISA
binding above PBS-coated wells (VP28): ≥ 50%

B11: NBX0722 (VHH)
VHH: B9 VHH with A23R, S43K, V56D, D62A, S100Q
notes: on phage in the phage ELISA
binding above PBS-coated wells (VP28): ≥ 50%

B12: NBX0724 (VHH)
VHH: B9 VHH with E6Q, P57S
notes: on phage in the phage ELISA
binding above PBS-coated wells (VP28): ≥ 50%

B13: NBX0746 (VHH)
VHH: B9 VHH with P33A, Q39R, S43K, V56N, S100Q
notes: on phage in the phage ELISA
binding above PBS-coated wells (VP28): ≥ 50%

B14: NBX0745 (VHH)
VHH: B9 VHH with S43K, V56D, D62A, S100E
notes: on phage in the phage ELISA
binding above PBS-coated wells (VP28): ≥ 50%

B15: NBX0822 (VHH)
VHH: QVQLQESGGGLVRPGDSLTLSCTYSGQTFTNSGMAWFRQRPGKEREFVAAVSRSGLGRRYADSVRGRFTITRDNGKNTANLQMDSLKPEDTAVYSCAATTLDWGPRGPYRYWGQGTQVTVSS
notes: on phage in the phage ELISA
binding above PBS-coated wells (PirA): ≥ 50%

B16: NBX0813 (VHH)
VHH: QVQLQESGGGLVQAGGSLRLSCVVSGMLFSIRNMRWYRQAPGKQRELVAQIGSSGNTDYVESVKGRFTISRDNAKNTVYLQMNSLKPEDTAVYFCNALNYWGKGTLVTVSS
notes: on phage in the phage ELISA
binding above PBS-coated wells (PirA): ≥ 50%

B17: NBX0821 (VHH)
VHH: B16 VHH with S53T, N56A, E61G, K64E, A74P, K103E
notes: on phage in the phage ELISA
binding above PBS-coated wells (PirA): ≥ 50%
